Assay results reported in patent publication US5747275, “Protein kinase required for RAS signal transduction” (The Regents of the University of California, dated 1998).

Columns and labels:
Dsor1 (D-MEK) = Dsor1 (D-MEK) (Drosophila, UniProt Q24324); assay: yeast two-hybrid
Drosophila Ras1 = Drosophila Ras1 (Drosophila, UniProt P08646); assay: yeast two-hybrid system or bacterially-expressed fusion proteins

binding result (Dsor1 (D-MEK)): no binding
binding result (Drosophila Ras1): no binding
B1: Drosophila melanogaster kinase suppressor of ras (Ksr) (enzyme)
chain: MSSNNNAPASAPDTGSTNANDPISGSLSVDSNLVIIQDMIDLSANHLEGLRTQCAISSTLTQQEIRCLESKLVRYFSELLLAKMRLNERIPANGLVPHTTGNELRQWLRVVGLSQGTLTACLARLTTLEQSLRLSDEEIRQLLADSPSQREEEELRRLTRAMQNLRKCMESLESGTAASNNDPEQWHWDSWDRPTHIHRGSVGNIGLGNNSTASPRTHHRQHGVKGKNSALANSTNFKSGRQSPSATEELNSTQGSQLTLTLTPSPPNSPFTPSSGLSSSLNGTPQRSRGTPPPARKHQTLLSQSHVQVDGEQLARNRLPTDPSTDSHSSTSSDIFVDPNTNASSGGSSSNVLMVPCSPGVGHVGMGHAIKHRFTKALGFMATCTLCQKQVFHRWMKCTDCKYICHKSCAPHVPPSCGLPREYVDEFRHIKEQGGYASLPHVHGAAKGSPLVKKSTLGKPLHQQHGDSSSPSSSCTSSTPSSPALFQQRERELDQAGSSSSANLLPTPSLGKHQPSQFNFPNVTVTSSGGSGGVSLISNEPVPEQFPTAPATANGGLDSLVSSSNGHMSSLIGSQTSNASTAATLTGSLVNSTTTTSTCSFFPRKLSTAGVDKRTPFTSECTDTHKSNDSDKTVSLSGSASTDSDRTPVRVDSTEDGDSGQWRQNSISLKEWDIPYGDLLLLERIGQGRFGTVHRALWHGDVAVKLLNEDYLQDEHMLETFRSEVANFKNTRHENLVLFMGACMNPPYLAIVTSLCKGNTLYTYIHQRREKFAMNRTLLIAQQIAQGMGYLHAREIIHKDLRTKNIFIENGKVIITDFGLFSSTKLLYCDMGLGVPHNWLCYLAPELIRALQPEKPRGECLEFTPYSDVYSFGTVWYELICGEFTFKDQPAESIIWQVGRGMKQSLANLQSGRDVKDLLMLCWTYEKEHRPQFARLLSLLEHLPKKRLARSPSHPVNLSRSAESVF
